The chains are these.
B1: Guanyl-specific ribonuclease T1, P00651 (parent)
chain: MMYSKLLTLTTLLLPTALALPSLVERACDYTCGSNCYSSSDVSTAQAAGYQLHEDGETVGSNSYPHKYNNYEGFDFSVSSPYYEWPILSSGDVYSGGSPGADRVVFNENNQLAGVITHTGASGNNFVECT

The variants in the series derive from B1. To be noted: Aspergillus oryzae (strain ATCC 42149 / RIB 40), 0 °C, Urea, CD, reversible: yes, structure 1RN1, whole UniProt chain shown.

A47N: where the note is “pH 2.5, glycine 30 mM”, the “ddG of mutation (higher = less stable)” value is -0.34 kcal/mol, the denaturant m value was 1.72 kcal/mol/M and the “denaturant midpoint (higher = more stable)” value (“denaturant midpoint” below) was 2.99 M.

Consider A47Y, for which, where the note is “pH 2.5, glycine 30 mM”, the “ddG of mutation (higher = less stable)” value turned out to be 0.39 kcal/mol, the denaturant m value came to 1.69 kcal/mol/M and the “denaturant midpoint” value amounted to 2.54 M.

In the case of A47C, for the setting “pH 2.5, glycine 30 mM”, the “ddG of mutation (higher = less stable)” value is 0.74 kcal/mol, the denaturant m value amounted to 1.56 kcal/mol/M and the “denaturant midpoint” value was found to be 2.33 M.

Consider A47L, for which, where the note is “pH 2.5, glycine 30 mM”, the “ddG of mutation (higher = less stable)” value amounted to 0.13 kcal/mol, the denaturant m value is 1.64 kcal/mol/M and the “denaturant midpoint” value is 2.7 M.

In the case of A47D, under “pH 2.5, glycine 30 mM”, the “ddG of mutation (higher = less stable)” value was -0.33 kcal/mol, the denaturant m value is 1.59 kcal/mol/M and the “denaturant midpoint” value was determined as 2.98 M. Under “pH 7, MOPS 30 mM”, the “ddG of mutation (higher = less stable)” value was determined as 0.71 kcal/mol, the denaturant m value is 1.24 kcal/mol/M and the “denaturant midpoint” value was 3.73 M.

As for A47G, where the note is “pH 2.5, glycine 30 mM”, the “ddG of mutation (higher = less stable)” value amounted to 0.9 kcal/mol, the denaturant m value was 1.71 kcal/mol/M and the “denaturant midpoint” value was found to be 2.23 M.

Regarding A47R, under “pH 2.5, glycine 30 mM”, the “ddG of mutation (higher = less stable)” value worked out at 0.41 kcal/mol, the denaturant m value amounted to 1.65 kcal/mol/M and the “denaturant midpoint” value was 2.53 M.

Consider A47T, for which, where the note is “pH 2.5, glycine 30 mM”, the “ddG of mutation (higher = less stable)” value was determined as 0.57 kcal/mol, the denaturant m value worked out at 1.6 kcal/mol/M and the “denaturant midpoint” value worked out at 2.43 M.

In the case of A47F, where the note is “pH 2.5, glycine 30 mM”, the “ddG of mutation (higher = less stable)” value turned out to be 0.57 kcal/mol, the denaturant m value came to 1.69 kcal/mol/M and the “denaturant midpoint” value is 2.43 M.

With A47Q, for the setting “pH 7, MOPS 30 mM”, the “ddG of mutation (higher = less stable)” value was 0.4 kcal/mol, the denaturant m value worked out at 1.12 kcal/mol/M and the “denaturant midpoint” value was determined as 3.99 M.

As for A47V, for the setting “pH 2.5, glycine 30 mM”, the “ddG of mutation (higher = less stable)” value was 0.66 kcal/mol, the denaturant m value stood at 1.77 kcal/mol/M and the “denaturant midpoint” value stood at 2.38 M.

As to A47M, under “pH 2.5, glycine 30 mM”, the “ddG of mutation (higher = less stable)” value worked out at 0.15 kcal/mol, the denaturant m value came out at 1.6 kcal/mol/M and the “denaturant midpoint” value is 2.69 M.

With A47E, under “pH 2.5, glycine 30 mM”, the “ddG of mutation (higher = less stable)” value is -0.05 kcal/mol, the denaturant m value worked out at 1.52 kcal/mol/M and the “denaturant midpoint” value was 2.81 M. Also, for the setting “pH 7, MOPS 30 mM”, the “ddG of mutation (higher = less stable)” value came to 0.69 kcal/mol, the denaturant m value came to 1.14 kcal/mol/M and the “denaturant midpoint” value amounted to 3.75 M.

A47H: under “pH 2.5, glycine 30 mM”, the “ddG of mutation (higher = less stable)” value was 0.56 kcal/mol, the denaturant m value turned out to be 1.79 kcal/mol/M and the “denaturant midpoint” value stood at 2.44 M. Also, under “pH 7, MOPS 30 mM”, the “ddG of mutation (higher = less stable)” value came out at 0.17 kcal/mol, the denaturant m value worked out at 1.27 kcal/mol/M and the “denaturant midpoint” value came to 4.18 M.

With A47K, where the note is “pH 2.5, glycine 30 mM”, the “ddG of mutation (higher = less stable)” value was found to be 0.51 kcal/mol, the denaturant m value was 1.7 kcal/mol/M and the “denaturant midpoint” value is 2.47 M.

A47I: where the note is “pH 2.5, glycine 30 mM”, the “ddG of mutation (higher = less stable)” value was determined as 0.44 kcal/mol, the denaturant m value is 1.57 kcal/mol/M and the “denaturant midpoint” value was 2.51 M.

On to A47S, for which, where the note is “pH 2.5, glycine 30 mM”, the “ddG of mutation (higher = less stable)” value is 0.49 kcal/mol, the denaturant m value worked out at 1.67 kcal/mol/M and the “denaturant midpoint” value worked out at 2.48 M. Further, for the setting “pH 7, MOPS 30 mM”, the “ddG of mutation (higher = less stable)” value is 0.4 kcal/mol, the denaturant m value was determined as 1.22 kcal/mol/M and the “denaturant midpoint” value came to 3.99 M.

Take A47W: where the note is “pH 2.5, glycine 30 mM”, the “ddG of mutation (higher = less stable)” value is 0.3 kcal/mol, the denaturant m value was 1.56 kcal/mol/M and the “denaturant midpoint” value came out at 2.6 M.

The values above are taken from FireProtDB (doi:10.1021/bi9707180).
